The record followed here is patent US20260224723A1, “ANTI-B7H3 ANTIBODY-DRUG CONJUGATE AND USE THEREOF” (Duality Biologics (Suzhou) Co., Ltd., priority 2022, published 2026).

As a reminder, the EC50 is the concentration at which the effect is half-maximal.

Assay [1] concerns the target Human full-length B7H3 on MCF-7 cells (human) (UniProt Q5ZPR3). The assay is described as follows: cell-based or functional assay.
For assay [2] the target is unchanged. The assay is described as follows: FACS on MCF-7 cells, Alexa 647 anti-human secondary.
For assay [3], the target named is Cynomolgus monkey full-length B7H3 on transfected FlpinCHO cells (cynomolgus monkey). The assay is described as follows: FACS on cynomolgus monkey B7H3-transfected FlpinCHO cell pool; negative control.

In the case of Enoblituzumab (MacroGenics) (antibody), in assay [1], the Antibody internalization EC50 came out at 1.95 nM and the Antibody internalization Maximum MFI was 39800 MFI. In assay [2], this substance showed an EC50 of 2.49 nM and a Maximum MFI of 4640 MFI.

In assay [1], hIgG1 isotype (antibody) yielded an Antibody internalization Maximum MFI of 21 MFI. The substance further displayed a Maximum MFI in assay [3] of 6.67 MFI.
